Reference: US20260116991A1 (HAINAN SIMCERE ZAIMING PHARMACEUTICAL, published 2026)

B1: F1.78.24 human-murine chimeric antibody (antibody, human IgG1, kappa, V domains shown)
VH: QVQLQQSGAELVKPGASVKMSCKASGYTFTTYPIEWMKQNHGKSLEWIGNFHPYNDDTNYNVKFKGKATLTVEKSSSTVYLELSRLTSDDSALYYCARRREYYGSFDVWGTGTTVTVSS
VL: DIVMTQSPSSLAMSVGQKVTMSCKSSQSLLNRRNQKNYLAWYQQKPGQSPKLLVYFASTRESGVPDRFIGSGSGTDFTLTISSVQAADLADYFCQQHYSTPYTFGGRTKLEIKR
B2: F1.83.6 human-murine chimeric antibody (antibody, human IgG1, kappa, V domains shown)
VH: QVQLQQSGPELVKPGASVKISCKASGYAFSSSWMNWVKQRPGKGLEWIGRIYPGDGDTNYNGRFKGKATLTVDKSSSTAYMQLSSLTSEDSAVYFCARGGVFTMALDHWGQGTTLTVSS
VL: DIQMTQSPSSLSASLGGKVTITCKASQDINKYIAWYQHKPGKGPRLLIHYTSTLQPGIPSRFSGSGSGRDYSFSISNLEPEDIATYYCLQYDNLFTFGGGTKLEIKR
B3: F1.92.17 human-murine chimeric antibody (antibody, human IgG1, kappa, V domains shown)
VH: EVQLQQSGPELVKPGASVKMSCKASGYTFTDYNMHWVRQSHGKSLEWIGYINPNNGDTIYNQNFKGKATLTVNKSSSTAYMELRSLTSEDSAVYYCSRTITYYYSMDYWGPGTSVTVSS
VL: QIVLTQSPALMSASPGEKVTMTCSASSSVSYMYWYQQKPRSSPKPWIYLTSNLASGVPARFSGSGSGTSYSLTISSMEAEDAATYYCQQWSSNPLTFGAGTKLELKR
B4: F1.110.24 human-murine chimeric antibody (antibody, human IgG1, kappa, V domains shown)
VH: EVKLVESGGGLVQPGGSLKLSCAASGFTFSDFYMYWVRQTPEKRLEWVAFISNGGGSTYYPDTVKGRFTISRDNVKNTLYLQMSRLKSEDTAMYYCARPDTSWFAYWGQGSLVTVSA
VL: DIQMTQTTSSLSASLGDRVTISCRASQDIDNYLNWYQQKPDGTVKVLISYTSRLHSGVPSRFSGSGSGTDYSLTISNLEQEDIATYFCQQGNTLPWTFGGGTKLEIKR
B5: F1.111.11 human-murine chimeric antibody (antibody, human IgG1, kappa, V domains shown)
VH: EVQLQQSGPELVKPGASVKISCKASGYTFTDYYMNWVKQSHGKSLEWIGDIYPNNGDTTYNQRFKGKATLTVDKSSSTAYMELRSLASEDSAVYYCACPYNNPFGYWGQGTLVTVSA
VL: DVVMTQTPLSLPVSLGDQASISCRSSQSLVHSNGNTYLHWYLQKPGQSPKLLIYKVSNRFSGVPDRFSGSGSGTDFTLKISRVEAEDLGVYFCSQSTHVPWTFGGGTKLEIKR
B6: F1.118.4 human-murine chimeric antibody (antibody, human IgG1, kappa, V domains shown)
VH: QVQLQQSGAELAKPGASVKLSCKASGYSFTSYWIHWVKQRPGQGLEWIGYINPSSGYTKYNQKFKDKATLTADKSSSTAYMQLSSLTYEDSAVYYCARFGSSSFYFDYWGQGTTLTVSS
VL: DIVLTQSPASLAVSLGQRATISCRASQSVSSSSYSYMHWYQQKPGQPPKLLIKYASNLDSGVPARFSGSGSGTDFTLNIHPVEEEDTATYYCQHSWEIPAFGGGTKLEIKR

Target: T1, murine GPC3-his protein (Sino Biological, Cat. No. 50989-M08B) (murine, UniProt Q8CFZ4 25-558)
T1 construct: Bought protein; also called murine GPC3 protein
Assay: ELISA, coated murine GPC3-His;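 further: antigen coated on plates at 1 µg/mL, test antibody bound for 2 h at 37 °C, detected with HRP-conjugated secondary antibody and TMB substrate after acid stop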
Description: The specific method is described as follows: The antigen protein was diluted with PBS to a final concentration of 1 μg/mL, and the diluent was added to a 96-well ELISA plate at 50 μL/well. The plate was sealed with a plastic film and incubated at 4° C. overnight, washed twice with PBS the next day, and a blocking solution [PBS+2% (w/w) BSA] was added for blocking at room temperature for 2 h. […] After incubation at 37° C. for 2 h, the plate was washed 3 times with PBS. A horseradish peroxidase (HRP)-labeled secondary antibody (purchased from Merck, Cat. No. AP113P) was added for incubation at 37° C. for 1 h, and the plate was washed 5 times with PBS. A TMB substrate was added at 50 μL/well for incubation at room temperature for 10 min, then a stop solution (1.0M HCl) was added at 50 μL/well. An ELISA plate reader (Multimode Plate Reader, EnSight, purchased from Perkin Elmer) was used to read OD_{450 nm} values, with results as shown in Table 4 to Table 6, FIG. 1A, FIG. 1B, and FIG. 1C.

T1 sequence (Q8CFZ4 25-558 limits assumed): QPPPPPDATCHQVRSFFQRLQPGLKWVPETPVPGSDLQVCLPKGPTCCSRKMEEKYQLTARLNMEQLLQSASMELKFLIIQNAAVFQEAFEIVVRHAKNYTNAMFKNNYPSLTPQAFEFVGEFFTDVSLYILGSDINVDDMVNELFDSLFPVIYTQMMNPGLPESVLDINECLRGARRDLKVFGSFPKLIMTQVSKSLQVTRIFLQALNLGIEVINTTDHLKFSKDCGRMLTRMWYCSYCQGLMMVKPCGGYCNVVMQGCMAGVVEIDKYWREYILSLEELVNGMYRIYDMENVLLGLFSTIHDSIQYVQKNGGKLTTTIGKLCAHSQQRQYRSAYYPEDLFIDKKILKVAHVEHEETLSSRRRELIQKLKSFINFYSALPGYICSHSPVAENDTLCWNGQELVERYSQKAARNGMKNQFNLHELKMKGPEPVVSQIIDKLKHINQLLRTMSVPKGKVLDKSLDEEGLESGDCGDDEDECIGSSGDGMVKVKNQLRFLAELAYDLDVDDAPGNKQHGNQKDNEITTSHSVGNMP

Binder | OD450 at 0.0001 nM antibody [OD450 nm] | OD450 at 0.001 nM antibody [OD450 nm] | OD450 at 0.01 nM antibody [OD450 nm] | OD450 at 0.1 nM antibody [OD450 nm] | OD450 at 1 nM antibody [OD450 nm] | OD450 at 10 nM antibody [OD450 nm] | OD450 at 100 nM antibody [OD450 nm]
B1 | 0.05 | 0.06 | 0.1 | 0.24 | 0.17 | 0.34 | 0.25
B2 | 0.05 | 0.05 | 0.06 | 0.12 | 0.14 | 0.24 | 0.16
B3 | 0.05 | 0.05 | 0.05 | 0.06 | 0.11 | 0.22 | 0.13
B4 | 0.05 | 0.05 | 0.05 | 0.12 | 0.32 | 0.53 | 0.3
B5 | 0.06 | 0.13 | 0.62 | 2.04 | 2.67 | 2.6 | 3.01
B6 | 0.05 | 0.05 | 0.05 | 0.05 | 0.05 | 0.06 | 0.07
